The results in this text go back to publication PMC12874534.

For the test, the target named is Bcl-XL-126Bpa (UniProt Q07817). The test can be described thus: BLI. On the technique in general: BLI is a label-free optical method that tracks binding on a fibre tip over time.
UniProt Q07817, sequence (Q07817 whole entry): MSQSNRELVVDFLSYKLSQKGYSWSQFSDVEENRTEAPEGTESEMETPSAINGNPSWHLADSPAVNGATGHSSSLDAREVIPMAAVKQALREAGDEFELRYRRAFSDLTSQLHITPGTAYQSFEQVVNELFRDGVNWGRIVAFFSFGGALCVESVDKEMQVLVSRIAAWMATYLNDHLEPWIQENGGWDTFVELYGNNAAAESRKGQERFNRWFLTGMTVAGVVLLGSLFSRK

For “Bid-83Bpa (from UniProt P55957 1-195) (natural protein)”, the dissociation constant Kd came out at 1770 nM.

Usually Kd stands for a measure of binding affinity in units of concentration. Read a high Kd as a looser complex.
